Test results published in US20100254965A1, “Adenosine Signaling in Diagnosis, Treatment, and Prevention of Priapism and Erectile Dysfunction” (BOARD OF REGENTS ,THE UNIVERSITY OF TEXAS SYSTEM, priority 2006, published 2010).
“Also recorded” adds a separate entry of the source.

Experiments:
[1] = test system: corpus cavernosal strips (CCS); assay: Adenosine-induced relaxation of corpus cavernosal strips (CCS); format: cell-based, mouse; conditions: CCS of wild type mice, 1-10 μM, adenosine 100 μM
Procedure: FIG. 16. […] CCS of wild type mice were treated with different concentrations of adenosine with or without DCF (5 μM), a specific inhibitor of adenosine deaminase. Then the extent (mN) of force was monitored. (b) CCS of wild type mice were treated with 100 μM adenosine in the presence of different concentrations of DCF (0-100 uM). Then the extent of force was measured. Data are expressed as mean±SE. *p<0.05, adenosine treated versus the control, **p<0.05, DCF treated versus the adenosine treated.
FIG. 17. A2BR signaling is required for adenosine-mediated corpus cavernosal strips (CCS) relaxation. (a) CCS of wild type mice were treated with different concentrations of theophiline (1-10 μM) in the presence or absence of adenosine (100 μM). The force changes were measured by force transducer. Data are expressed as mean±SE. *p<0.05, adenosine treated versus the control, **p<0.05, theophiline treated versus the untreated, N=5. (b) CCS from wild type, A2AR, A1R A2BR and A3R-deficient mice were treated with different concentrations of adenosine. The relaxation was measured by force transducer. Data are expressed as mean±SE. *p<0.05, adenosine treated versus the wild type. (c) CCS were isolated from wild type and A2BR-deficient mice and treated with different concentrations of adenosine in the presence or absence of L-NAME (100 μM) or MRS1706 (10 μM). 10 min after treatment, cellular extracts were collected and cAMP levels were measured by using a commercial enzyme immunoassay kit (Amersham Pharmacia). Data are expressed as mean±SE. *p<0.05, adenosine treated versus the control without treatment; **p<0.05, adenosine treated with MRS1706 versus the adenosine treated alone; ***p<0.05, CCS of A2BR-deficient mice treated with adenosine versus the CCS of wild type mice treated with adenosine. N=6-7. (d) CCS of A2BR and ADA double deficient mice lost the hypersensitivity to nerve stimulation compared to ADA deficient mice.
(§1) Function experiments. The tunica albuginea was cut longitudinally, starting at the most proximal point of the corpus cavernosum (CC) toward the penile shaft, and the erectile tissue was partially dissected free from the tunica. One strip of tissue (0.3×0.3×3 mm) was obtained from each corpus cavernosum. The contractility of each isolated corpus cavernosum smooth muscle cells (CCSM) strip was measured using an isometric force transducer (AD Instrument Inc., Georgia, Vt., USA). The strip was mounted in a thermostatically controlled tissue bath containing aerated PSS (mM: 119 NaCl, 4.7 KCl, 24 NaHCO 3, 1.2 KH2PO4, 2.5 CaCl2, 1.2 MgSO4, 0.023 EDTA, and 11 glucose; 5 ml volume, 95% O2 and 5% CO2, 37° C.) and stretched to a resting tension of 0.1 mN. The contractile responses of the strips were analysed by adding 10 μM phenylephrine to the bath, and force changes were recorded in response to drug application and to electrical field stimulation. The particular electrical field stimulation parameters of 0-30V, 30 HZ with a pulse width of approximately 0.5 ms, are commonly used in the mice. […] The changes of cAMP and cGMP contents in CC strips were subsequently measured by commercial enzyme immunoassay kit (Amersham Pharmacia) (see below).

[2] = test system: multiple animal models, including humans; conditions: in vivo; cited from earlier work
[3] = test system: ADA-deficient mice; conditions: cited from earlier work
[4] = test system: corpus cavernosal strips (CCS); assay: EFS-induced relaxation of phenylephrine-precontracted corpus cavernosal strips (CCS) of ADA+ and ADA-/- mice; format: cell-based, mouse
Description: Prolonged penile erection in ADA-deficient mice is associated with increased corpus cavernosal relaxation in response to nerve stimulation. To determine if the potent and prolonged penile erection seen in ADA-deficient mice is associated with increased corpus cavernosal relaxation, we evaluated comparatively the relaxation of phenylephrine-precontracted isolated corpus cavernosal strips of ADA+ and ADA−/− mice in response to nerve stimulation^73,74. The corpus cavernosum is under sympathetic influence to maintain a contracted state resulting in a flaccid penis^3. To emulate this situation, contraction was induced by treatment with the α-adrenergic receptor agonist, phenylephrine (10 μM). The maximum phenylephrine-induced contraction was reached within 10-20 s after application to cavernosal strips from ADA+ and ADA−/− mice. Electrical field stimulation (EFS) is commonly used to stimulate the nerves that innervate the smooth muscle cells of the corpus cavernosum to mediate relaxation, corresponding to normal physiological penile erection^19,73,74,92,93. In our studies, EFS induced relaxation of corpus cavernosal strips from both ADA+ and ADA−/− mice in a voltage and frequency-dependent manner (FIGS. 14b and c). For ADA+ mice, relaxation increased incrementally over a standard voltage range with a maximal response at 20 V and 30 Hz.
Elevated adenosine in ADA-deficient mice contributes to increased corpus cavernosal strip relaxation. […]
Function experiments. […] The contractility of each isolated corpus cavernosum smooth muscle cells (CCSM) strip was measured using an isometric force transducer (AD Instrument Inc., Georgia, Vt., USA). […] The contractile responses of the strips were analysed by adding 10 μM phenylephrine to the bath, and force changes were recorded in response to drug application and to electrical field stimulation. […] The changes of cAMP and cGMP contents in CC strips were subsequently measured by commercial enzyme immunoassay kit (Amersham Pharmacia) (see below).

[5] = test system: ADA-deficient mice; assay: Spontaneous prolonged penile erection (priapic activity) in ADA-deficient mice, PEG-ADA enzyme therapy; format: in vivo, mouse; conditions: intraperitoneal injection of PEG-ADA
Procedure: The ADA-deficient mice were injected with PEG-ADA weekly. During the course of maintaining our production colony of ADA-deficient mice, we noticed that ADA-deficient male breeders (kept alive by enzyme therapy) frequently presented with prolonged penile erections lasting up to 72 hours (FIG. 1a). The penile erections were typically noticed at the time of the scheduled weekly PEG-ADA injection. We know from earlier studies that the lowest levels of circulating adenosine are achieved during the first day following the PEG-ADA injection^21,28. Adenosine levels rise continually during the subsequent days preceding the next PEG-ADA injection. Thus, adenosine levels are highest just prior to the scheduled weekly injection of PEG-ADA when the priapism was observed^21,28. Priapic erections were never observed in wild type male mice (FIG. 14a).
Prolonged penile erection in ADA-deficient mice depends on pronounced accumulation of adenosine in the penis. We hypothesized that the increased penile erection and corpus cavernosal smooth muscle relaxation in response to nerve stimulation in ADA-deficient mice were due to elevated concentrations of adenosine. To test this hypothesis, adenosine levels were quantified in penile tissue from ADA^+ and ADA^−/− mice^21,23,28. […]

[6] = test system: corpus cavernosal strips (CCS); assay: EFS-induced relaxation of CCS of SCD transgenic mice and controls; format: cell-based, mouse
Procedure: FIG. 21. Priapic activity seen in SCD transgenic mice is dependent on elevated adenosine in penis via A2BR signaling. (a) Adenosine levels in the penis increased in SCD transgenic mice. Perchloric acid extracts of penile tissues from SCD transgenic mice and control mice were analyzed by HPLC to determine the levels of adenosine. The data are expressed as mean±SE. *p<0.005, (control n=5 and SCD transgenic mice n=6), SCD transgenic mice versus the controls. (b) Increased corpus cavernosum strips (CCS) relaxation by electrical field stimulation (EFS) in SCD transgenic mice. Relaxation effect of EFS with different voltages (0-30V) at 30 Hz and 0.5 ms pulse width, alternating polarity between pulses, in 10 μM phenylephrine-precontracted CCS from the controls (n=5) and SCD transgenic mice (n=5). (c-e) Prolonged penile erection seen in SCD transgenic mice is due to high levels of adenosine in the penis via A2BR signaling. Average EFS-induced relaxation from the PE-precontracted CC strips of the controls and SCD transgenic mice treated without or with PEG-ADA, MRS1706 or ZM241389. EFS-induced force change (c), duration of relaxation by EFS (d) and area under basal line (e) were representative of the CCS relaxation. (n=5 for the controls and n=5 for SCD transgenic mice with or without PEG-ADA, MRS1706 or ZM241389 treatment, respectively). Data are given as means±SE. *p<0.05, SCD transgenic mice versus the controls, **p<0.05, CCS of […] with PEG-ADA, MRS1706 or ZM241389 treatment versus CCS of SCD transgenic mice without treatment; ***p<0.05, CCS of the control mice with MRS1706 and/or L-NAME treatment versus CCS of the control mice without treatment.
Sickle cell disease (SCD) transgenic mice, expressing exclusively human sickle hemoglobin, were also used. These mice were age-matched, adult male homozygotes [SS^−/−, consisting of a transgene and two targeted gene deletions: (Tg (Hu-miniLCR alpha 1G gamma A gamma delta beta s) Hba0//Hba0 Hbb0//Hbb00) and heterozygotes (SS^−/+, SS^−/− genotype except Hbb0//Hbb+), developed on a mixed-strain background (mouse strains FVB/N, 129, DBA/2, C57BL/6, Black Swiss)^94,95.
as §1

Cn1c(=O)c2[nH]cnc2n(C)c1=O [theophyline, theophylline]
inhibition of adenosine-mediated corpus cavernosal strip relaxation [1]: significantly inhibited adenosine-mediated corpus cavernosal strip relaxation in a dosage dependent manner | adenosine-induced penile tumescence [2]: inhibited adenosine-induced penile tumescence

CCCn1c(=O)c2[nH]c(-c3cnn(Cc4cccc(C(F)(F)F)c4)c3)nc2n(CC)c1=O [CVT-6883]
adenosine-mediated pulmonary fibrosis and enlargement of alveolar airspaces [3]: significantly reduces adenosine-mediated pulmonary fibrosis and enlargement of alveolar airspaces

CNC[C@H](O)c1cccc(O)c1 [phenylephrine]
time to maximum phenylephrine-induced contraction ([4]; 10 μM, cavernosal strips from ADA+ and ADA-/- mice): 10 to 20 s

B1: PEG-ADA: purified bovine ADA covalently modified with activated polyethylene glycol; modified form of ADA used for enzyme therapy (protein, UniProt P56658 2-363, looked up)
Adenosine deaminase: AQTPAFNKPKVELHVHLDGAIKPETILYYGRKRGIALPADTPEELQNIIGMDKPLSLPEFLAKFDYYMPAIAGCREAVKRIAYEFVEMKAKDGVVYVEVRYSPHLLANSKVEPIPWNQAEGDLTPDEVVSLVNQGLQEGERDFGVKVRSILCCMRHQPSWSSEVVELCKKYREQTVVAIDLAGDETIEGSSLFPGHVKAYAEAVKSGVHRTVHAGEVGSANVVKEAVDTLKTERLGHGYHTLEDATLYNRLRQENMHFEVCPWSSYLTGAWKPDTEHPVVRFKNDQVNYSLNTDDPLIFKSTLDTDYQMTKNEMGFTEEEFKRLNINAAKSSFLPEDEKKELLDLLYKAYGMPSPASAEQCL
modifications: PEG
notes: modified form of ADA used for enzyme therapy
prolonged penile erection / priapic activity [5]: quickly corrected; also recorded: quickly reverses the priapic activity; also recorded: relieved the prolonged penile erection | force, duration and area under baseline of EFS-induced relaxation ([4]; CCS from ADA-/- mice, EFS 5V and 30 Hz for 60 s, versus untreated CCS): significantly reduced the force, duration and area under baseline | EFS-induced CCS relaxation ([4]; CCS of control (ADA+) mice, EFS 5V and 30 Hz): decreased the EFS-induced CCS relaxation | force, duration and area under baseline of EFS-induced relaxation ([6]; CCS of SCD transgenic mice versus untreated CCS): significantly reduced the force, duration and area under baseline | force, duration and area under baseline of EFS-induced relaxation ([6]; CCS of the controls): decreased the force, duration and area under baseline | pulmonary inflammation and fibrosis ([3]; lowering adenosine by PEG-ADA therapy): can prevent and even reverse aspects of pulmonary inflammation and fibrosis
